US20190389941A1
Changes are numbered by the printed parent chain. Blank lines part the entries; values can stand above or below the binder they belong to.

Biological target: complement proteins
Test: cell-based or functional assay

CDC inhibition IC50 (anti-CD20-coated Will-2 cells plus serum): 10 µg/mL
B1: G1098, P0DOX5 218-449 (Fc fusion)
chain: EPKSCDKTHTCPPCPAPELLGGPSVFLFPPKPKDTLMISRTPEVTCVVVDVSHEDPEVKFNWYVDGVEVHNAKTKPREEQYNSAYRVVSVLTVLHQDWLNGKEYKCKVSNKALPAPIEKTISKAKGQPREPQVYTLPPSREEMTKNQVSLTCLVKGFYPSDIAVEWESNGQPENNYKTTPPVLDSDGSFFLYSKLTVDKSRWQQGNVFSCSVMHGALHNHYTQKYLSLSPGKERKCCVECPPCP

CDC inhibition IC50 (anti-CD20-coated Will-2 cells plus serum): 5 µg/mL
B2: G1126, P0DOX5 218-449 (Fc fusion)
chain: B1 chain with E130R
